Laboratory results published in article PMC5730196.

Legend:
[1] = molecular target: DREP1 CIDE domain (DFF-related protein 1), wild type (Drosophila melanogaster); assay: SEC; purified proteins alone or mixed, Superdex 200 HR 10/30 in 20 mM Tris-HCl pH 8.0, 150 mM NaCl; peak fractions on SDS-PAGE
[2] = molecular target: DREP3 CIDE domain (DFF-related protein 3), wild type (Drosophila melanogaster); assay: as above

stoichiometry N [1]	stoichiometry N [2]	Substance
2		DREP1 CIDE domain (DFF-related protein 1), wild type (domain or fragment)
	2	DREP3 CIDE domain (DFF-related protein 3), wild type (domain or fragment)
